Literature values in article PMC12394151.

Target: IL-6R (Homo sapiens) (UniProt P08887)
Assay: BLI
Conditions: cited from earlier work

Chain of IL-6R (Homo sapiens) (P08887 20-355): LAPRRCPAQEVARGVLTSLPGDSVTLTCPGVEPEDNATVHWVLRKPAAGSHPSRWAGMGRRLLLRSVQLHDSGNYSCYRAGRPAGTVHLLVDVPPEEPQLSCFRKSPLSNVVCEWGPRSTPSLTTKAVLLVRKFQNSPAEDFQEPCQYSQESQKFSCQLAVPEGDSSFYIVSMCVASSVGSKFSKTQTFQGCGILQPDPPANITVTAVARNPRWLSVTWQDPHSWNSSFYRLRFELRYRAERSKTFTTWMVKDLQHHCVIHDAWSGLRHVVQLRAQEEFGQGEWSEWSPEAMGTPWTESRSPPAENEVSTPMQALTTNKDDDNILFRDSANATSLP

Tocilizumab
Kd: 38.8 nM
